This note sets out measurements from patent US20260209291A1.

Some results are limits rather than exact numbers.

Common to all, as to experiment: cell-based or functional assay
In one test the target is T1, activin A (human) (UniProt P08476).
T1 sequence: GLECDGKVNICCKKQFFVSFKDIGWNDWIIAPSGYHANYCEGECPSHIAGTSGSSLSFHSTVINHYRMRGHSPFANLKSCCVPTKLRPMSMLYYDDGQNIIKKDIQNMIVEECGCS

In test [1] the target is T2, myostatin (Homo sapiens (Human)) (UniProt O14793).
T2 sequence: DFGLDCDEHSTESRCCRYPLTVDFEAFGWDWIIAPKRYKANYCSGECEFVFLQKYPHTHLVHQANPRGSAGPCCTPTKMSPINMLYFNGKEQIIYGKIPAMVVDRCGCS

The target in test [2] is T3, GDF11 (Growth Differentiation Factor 11) (Homo sapiens (Human)) (UniProt O95390).
T3 sequence: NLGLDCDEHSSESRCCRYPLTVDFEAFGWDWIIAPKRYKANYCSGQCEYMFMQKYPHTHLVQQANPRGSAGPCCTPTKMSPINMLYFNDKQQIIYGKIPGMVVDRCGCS

Sequence of VGFR(½)-hFc (Aflibercept) (Fc fusion) (chain): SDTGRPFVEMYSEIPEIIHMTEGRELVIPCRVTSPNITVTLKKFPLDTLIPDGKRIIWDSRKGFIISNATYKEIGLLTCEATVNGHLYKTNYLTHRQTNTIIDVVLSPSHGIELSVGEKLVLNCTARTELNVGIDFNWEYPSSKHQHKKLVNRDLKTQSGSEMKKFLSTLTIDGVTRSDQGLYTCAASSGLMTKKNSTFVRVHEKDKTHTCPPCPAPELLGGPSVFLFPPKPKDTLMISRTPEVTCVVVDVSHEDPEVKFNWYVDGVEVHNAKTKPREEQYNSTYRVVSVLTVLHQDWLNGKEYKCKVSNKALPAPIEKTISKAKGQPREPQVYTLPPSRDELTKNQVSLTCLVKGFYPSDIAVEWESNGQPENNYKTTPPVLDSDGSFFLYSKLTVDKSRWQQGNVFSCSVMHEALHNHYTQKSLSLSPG

Regarding “FSD1 (E126A) (single entity produced in E. coli) (from UniProt P19883 93-165)”, in the test with activin A (human), the neutralization of activin A signaling (pSmad2/3 luciferase reporter bioassay, HEK293) is more than 822 nM. The same substance returned a neutralization of myostatin signaling (pSmad2/3 luciferase reporter bioassay, HEK293) in test [1] of more than 822 nM.
Take “FSD1 (Q124A) (single entity produced in E. coli) (from UniProt P19883 93-165)”: the neutralization of activin A signaling (pSmad2/3 luciferase reporter bioassay, HEK293) in the test with activin A (human) is more than 822 nM. The substance also had a neutralization of myostatin signaling (pSmad2/3 luciferase reporter bioassay, HEK293) in test [1] of more than 822 nM.
On to “FSD1 (Q124A, E126A) (single entity produced in E. coli) (from UniProt P19883 93-165)”, for which the neutralization of activin A signaling (pSmad2/3 luciferase reporter bioassay, HEK293) with activin A (human) was more than 822 nM. This substance also yielded a neutralization of myostatin signaling (pSmad2/3 luciferase reporter bioassay, HEK293) in test [1] of more than 822 nM.
Turning to TNFR2-hFc (Etanercept) (Fc fusion), the neutralization of GDF11 signaling (pSmad2/3 luciferase reporter bioassay, HEK293) in test [2] is more than 8.2 nM. The substance also returned a neutralization of activin A signaling (pSmad2/3 luciferase reporter bioassay, HEK293) with activin A (human) of more than 8.2 nM. Further, the neutralization of myostatin signaling (pSmad2/3 luciferase reporter bioassay, HEK293) in test [1] is more than 8.2 nM.
VGFR(½)-hFc (Aflibercept) (Fc fusion) had a neutralization of GDF11 signaling (pSmad2/3 luciferase reporter bioassay, HEK293) in test [2] of more than 8.2 nM. In addition, in test [1], the neutralization of myostatin signaling (pSmad2/3 luciferase reporter bioassay, HEK293) was more than 8.2 nM.
